{
  "source": "paper PMC6747193",
  "biological_target": "C1QBP Recombinant Human Protein (gC1q-R) (human) (UniProt Q07021)",
  "sequence (Q07021 74-282)": "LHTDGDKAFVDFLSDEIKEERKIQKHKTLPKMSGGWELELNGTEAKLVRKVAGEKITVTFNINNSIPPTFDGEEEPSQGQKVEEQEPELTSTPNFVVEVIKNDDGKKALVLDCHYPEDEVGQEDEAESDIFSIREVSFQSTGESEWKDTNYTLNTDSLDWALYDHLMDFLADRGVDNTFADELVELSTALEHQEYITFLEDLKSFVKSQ",
  "assay": "ELISA; solid-phase microplate competition: gC1q-R coated on wells; polyclonal antibodies against gC1q-R amino acids 76-104 or 221-249 added at 4 µg/mL 1 h before idInlB at 0.4 µg/mL; idInlB without antibodies as positive control; bound idInlB detected with anti-His polyclonal antibody",
  "data": [
    {"substance": "InlB internalin domain isoform idInlB9 (lineage I, from L. monocytogenes strain VIMHA015) (from UniProt P0DQD2 36-321) (domain or fragment)", "values": [
      {"measurement": "fold decrease of binding with the antibody against gC1q-R amino acids 76-104, against idInlB9 without antibody", "value": 1.6, "unit": "fold"},
      {"measurement": "fold decrease of binding with the antibody against gC1q-R amino acids 221-249, against idInlB9 without antibody", "value": 1.25, "unit": "fold"}
    ]}
  ]
}
